Experimental data as given in article PMC4757451.

Substrate: NC(=O)N1c2ccccc2C=Cc2ccccc21
Test: Steady-state NADPH oxidation by CYP3A4 Nanodiscs with CPR
Format: biochemical, human
Details: other: at 30 µM PGS; at 200 µM CBZ; pH 7.4; 37.0 °C

B1: CYP3A4 (Homo sapiens; S18F) (protein)
chain: MALLLAVFLVLLYLYGTHSHGLFKKLGIPGPTPLPFLGNILSYHKGFCMFDMECHKKYGKVWGFYDGQQPVLAITDPDMIKTVLVKECYSVFTNRRPFGPVGFMKSAISIAEDEEWKRLRSLLSPTFTSGKLKEMVPIIAQYGDVLVRNLRREAETGKPVTLKDVFGAYSMDVITSTSFGVNIDSLNNPQDPFVENTKKLLRFDFLDPFFLSITVFPFLIPILEVLNICVFPREVTNFLRKSVKRMKESRLEDTQKHRVDFLQLMIDSQNSKETESHKALSDLELVAQSIIFIFAGYETTSSVLSFIMYELATHPDVQQKLQEEIDAVLPNKAPPTYDTVLQMEYLDMVVNETLRLFPIAMRLERVCKKDVEINGMFIPKGVVVMIPSYALHRDPKYWTEPEKFLPERFSKKNKDNIDPYIYTPFGSGPRNCIGMRFALMNMKLALIRVLQNFSFKPCKETQIPLKLSLGGLLQPEKPVVLKVESRDGTVSGA
Work on B1 yielded a kcat of 2.05 s⁻¹.
